# Patent publication US20200024316A1 (GENOIMMUNE THERAPEUTICS, published 2020)
# B1: wild-type peptide TLISSLRPI (peptide)
# peptide: TLISSLRPI
# notes: Made by solid phase synthesis, purified by reverse phase HPLC, purity >90%
# B2: mutant peptide TLISSLMPI (peptide)
# peptide: TLISSLMPI
# notes: Made by solid phase synthesis, purity >90%; also called peptide (a); tumor antigen peptide
# Biological target: T1, HLA-A0201 on T2 cells (human)
# T1 construct: MHC class I molecule on T2 cells; also called HLA-A0201 molecule; HLA-A2
# Assay: T2 cell HLA-A0201 assay, flow cytometry with FITC anti-HLA-A0201 mAb, peptide 100 µM
# Method: Cells were collected by centrifugation of the cell culture at 200 g for 5 minutes. […] The mean fluorescence intensity (MFI) was then detected and analyzed by flow cytometer (BD FACSJazz™) and its software. The fluorescence index (FI) was calculated by using the following formula:
Binder,Average fluorescence intensity,FI (fluorescence index)
B1,672,1.99
TMISSLMPL [variant peptide TMISSLMPL],764,2.4
TLISSLMPV [variant peptide TLISSLMPV],714,2.18
TMISSLMPI [variant peptide TMISSLMPI],701,2.12
TMISSLMPV [variant peptide TMISSLMPV],776,2.46
B2,683,2.04
TLISSLMPL [variant peptide TLISSLMPL],692,2.08
